The values below are quoted from earlier work in PMC4507496.

pKd: −log10 of the molar value. Read-outs that look alike come from different tables or passages of the source.

In data set [1] the target is ATG7 (Homo sapiens) (UniProt O95352). Particulars: cited from earlier work.
Data set [2] shares this target. The following applies: cited from earlier work. This is another data set of the same source.

Sequence of ATG7 (Homo sapiens) (O95352 2-703): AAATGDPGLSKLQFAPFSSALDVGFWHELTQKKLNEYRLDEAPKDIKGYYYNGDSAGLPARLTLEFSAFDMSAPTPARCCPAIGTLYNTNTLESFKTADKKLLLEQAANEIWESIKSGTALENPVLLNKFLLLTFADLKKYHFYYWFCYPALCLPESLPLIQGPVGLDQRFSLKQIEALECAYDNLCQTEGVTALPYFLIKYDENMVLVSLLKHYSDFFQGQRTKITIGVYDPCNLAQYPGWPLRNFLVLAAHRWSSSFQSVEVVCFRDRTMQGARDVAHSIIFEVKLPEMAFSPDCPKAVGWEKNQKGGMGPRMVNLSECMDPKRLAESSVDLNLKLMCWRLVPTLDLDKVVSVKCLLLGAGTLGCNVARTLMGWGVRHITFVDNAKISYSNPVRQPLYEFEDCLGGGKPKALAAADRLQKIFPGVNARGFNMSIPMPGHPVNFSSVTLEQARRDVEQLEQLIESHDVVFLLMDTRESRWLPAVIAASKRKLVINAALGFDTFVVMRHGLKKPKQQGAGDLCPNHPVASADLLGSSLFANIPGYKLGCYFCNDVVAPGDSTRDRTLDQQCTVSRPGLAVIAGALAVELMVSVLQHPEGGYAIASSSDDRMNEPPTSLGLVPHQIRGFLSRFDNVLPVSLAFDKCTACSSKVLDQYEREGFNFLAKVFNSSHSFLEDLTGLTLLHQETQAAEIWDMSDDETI
Sequence of ATG3 (Q9NT62 whole entry): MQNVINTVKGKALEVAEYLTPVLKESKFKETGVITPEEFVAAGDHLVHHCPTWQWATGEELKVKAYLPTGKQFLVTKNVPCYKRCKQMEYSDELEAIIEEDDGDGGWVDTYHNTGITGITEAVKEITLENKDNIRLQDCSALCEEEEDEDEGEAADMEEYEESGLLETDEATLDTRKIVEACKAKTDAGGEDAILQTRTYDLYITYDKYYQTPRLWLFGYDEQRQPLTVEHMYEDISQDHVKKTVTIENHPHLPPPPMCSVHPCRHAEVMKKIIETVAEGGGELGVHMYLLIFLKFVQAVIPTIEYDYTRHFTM
Sequence of ATG3 flexible region flexible region (Q9NT62 90-190): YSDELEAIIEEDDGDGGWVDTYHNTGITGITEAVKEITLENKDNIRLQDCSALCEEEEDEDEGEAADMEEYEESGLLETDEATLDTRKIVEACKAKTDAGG

Take “ATG3 flexible region flexible region (from UniProt Q9NT62)”: the pKd in the data set with ATG7 (Homo sapiens) [1] was under 4.15.
Consider ATG3 (from UniProt Q9NT62), for which the pKd with ATG7 (Homo sapiens) [2] was 5.66.
